The record followed here is the supplement of paper PMC10567573.

B1: SLC35F2 (parent)
chain: SFMPLVIKVTSATSVNLGILTADL
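Note: lentivirally expressed fusions sorted by FACS into six bins by GFP to DsRed ratio, PSI derived from sequencing read proportions per bin multiplied by bin number.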

The variants in the series derive from B1. Briefly: protein stability index of a GFP-peptide fusion (GPS, HEK-293T) (PSI 1-6); higher = more stable. The conditions noted are these: c terminus: a fixed tail appended.
For the variant SFMPLVHKVTSATSVNLGILTADL, the protein stability index came out at 1.57.

With SFMPLVDKVTSATSVNLGILTADL, the protein stability index was determined as 1.98.

With SFMPLVEKVTSATSVNLGILTADL, the protein stability index stood at 1.49. Regarding SFMPLVNKVTSATSVNLGILTADL, the protein stability index was found to be 2.21. The same measure for SFMPLVAKVTSATSVNLGILTADL: 2.13; for SFMPLVPKVTSATSVNLGILTADL: 1.88. For SFMPLVSKVTSATSVNLGILTADL, the protein stability index came out at 1.89.

Take SFMPLVMKVTSATSVNLGILTADL: the protein stability index stood at 2.87. SFMPLVIKVTSACSVNLGILTADL: the protein stability index amounted to 3.16. For SFMPLVIKVTSAISVNLGILTADL, the protein stability index came to 3.67.

With SFMPLVIKVTSAYSVNLGILTADL, the protein stability index came out at 3.88. The same measure for SFMPLVIKVTSALSVNLGILTADL: 2.94.

Consider SFMPLVIKVTSARSVNLGILTADL, for which the protein stability index was found to be 3.63. Take SFMPLVIKVTSAWSVNLGILTADL: the protein stability index was found to be 2.75. In the case of SFMPLVIKVTSAVSVNLGILTADL, the protein stability index turned out to be 2.43. As for SFMPLVIKVTSAPSVNLGILTADL, the protein stability index stood at 3.09. In the case of SFMPLVIKVTSANSVNLGILTADL, the protein stability index was 2.55. For SFMPLVIKVTSAGSVNLGILTADL, the protein stability index was 2.38. In the case of SFMPLVIKVTSAFSVNLGILTADL, the protein stability index worked out at 2.53. For the variant SFMPLVIKVTSADSVNLGILTADL, the protein stability index came out at 3.02. The same measure for SFMPLVIKVTSAQSVNLGILTADL: 2.25; for SFMPLVIKVTSAHSVNLGILTADL: 4; for SFMPLVIKVTSASSVNLGILTADL: 2.59. As for SFMPLVIKVTSAKSVNLGILTADL, the protein stability index turned out to be 2.16. As to SFMPLVIKVTSAESVNLGILTADL, the protein stability index stood at 2.6.

As to SFMPLVIKVTSAASVNLGILTADL, the protein stability index turned out to be 3.02. To SFMPLVIKVTSAMSVNLGILTADL belongs 2.34.

In the case of SFMPLVIWVTSATSVNLGILTADL, the protein stability index is 2.13. For the variant SFMPLVIPVTSATSVNLGILTADL, the protein stability index was 2.19. The same measure for SFMPLVINVTSATSVNLGILTADL: 3.01; for SFMPLVITVTSATSVNLGILTADL: 3. SFMPLVIHVTSATSVNLGILTADL: the protein stability index came out at 2.59. On to SFMPLVIIVTSATSVNLGILTADL, for which the protein stability index was determined as 3.97. For the variant SFMPLVIVVTSATSVNLGILTADL, the protein stability index was found to be 3.52. With SFMPLVIGVTSATSVNLGILTADL, the protein stability index was determined as 2.94. Regarding SFMPLVIQVTSATSVNLGILTADL, the protein stability index came to 2.87. As to SFMPLVIMVTSATSVNLGILTADL, the protein stability index was 2.42.

For the variant SFMPLVISVTSATSVNLGILTADL, the protein stability index is 3.16. In the case of SFMPLVIDVTSATSVNLGILTADL, the protein stability index stood at 2.75. SFMPLVIYVTSATSVNLGILTADL: the protein stability index amounted to 3.43. The same measure for SFMPLVIRVTSATSVNLGILTADL: 3.26; for SFMPLVIAVTSATSVNLGILTADL: 2.83. The same measure for SFMPLVICVTSATSVNLGILTADL: 3.64; for SFMPLVIEVTSATSVNLGILTADL: 3.06; for SFMPLVIKRTSATSVNLGILTADL: 1.81. Turning to SFMPLVIKHTSATSVNLGILTADL, the protein stability index was 1.52. SFMPLVIKATSATSVNLGILTADL: the protein stability index amounted to 2.07. Consider SFMPLVIKNTSATSVNLGILTADL, for which the protein stability index stood at 2.39. Take SFMPLVIKYTSATSVNLGILTADL: the protein stability index was found to be 3.58. Consider SFMPLVIKETSATSVNLGILTADL, for which the protein stability index stood at 1.58. Consider SFMPLVIKTTSATSVNLGILTADL, for which the protein stability index worked out at 1.46. Regarding SFMPLVIKCTSATSVNLGILTADL, the protein stability index stood at 3.06.

As for SFMPLVIKWTSATSVNLGILTADL, the protein stability index is 2.28. Turning to SFMPLVIKKTSATSVNLGILTADL, the protein stability index came out at 1.48. As for SFMPLVIKFTSATSVNLGILTADL, the protein stability index turned out to be 3.51. Consider SFMPLVIKQTSATSVNLGILTADL, for which the protein stability index turned out to be 3.26. To SFMPLVIKDTSATSVNLGILTADL belongs 1.78. For the variant SFMPLVIKSTSATSVNLGILTADL, the protein stability index amounted to 1.56. Consider SFMPLVIKLTSATSVNLGILTADL, for which the protein stability index came out at 4.15. As for SFMPLVIKPTSATSVNLGILTADL, the protein stability index is 1.7. The same measure for SFMPLVIKITSATSVNLGILTADL: 3.17; for SFMPLVIKGTSATSVNLGILTADL: 2.17. Consider SFMPLYIKVTSATSVNLGILTADL, for which the protein stability index stood at 3.21. As to SFMPLRIKVTSATSVNLGILTADL, the protein stability index was found to be 2.43. With SFMPLWIKVTSATSVNLGILTADL, the protein stability index came out at 4.41. In the case of SFMPLFIKVTSATSVNLGILTADL, the protein stability index is 2.02.

Regarding SFMPLHIKVTSATSVNLGILTADL, the protein stability index worked out at 2.74. For the variant SFMPLTIKVTSATSVNLGILTADL, the protein stability index amounted to 2.76. The same measure for SFMPLKIKVTSATSVNLGILTADL: 2.88; for SFMPLLIKVTSATSVNLGILTADL: 2.32; for SFMPLIIKVTSATSVNLGILTADL: 2.65.

For SFMPLAIKVTSATSVNLGILTADL, the protein stability index came out at 2.02.

For SFMPLMIKVTSATSVNLGILTADL, the protein stability index worked out at 1.36. For SFMPLSIKVTSATSVNLGILTADL, the protein stability index amounted to 2. Turning to SFMPLDIKVTSATSVNLGILTADL, the protein stability index came out at 2.09. Turning to SFMPLQIKVTSATSVNLGILTADL, the protein stability index amounted to 1.86. For SFMPLGIKVTSATSVNLGILTADL, the protein stability index was 3.03. Turning to SFMPLNIKVTSATSVNLGILTADL, the protein stability index was 2.29.

As to SFMPLEIKVTSATSVNLGILTADL, the protein stability index was determined as 1.24. For the variant SFMPLPIKVTSATSVNLGILTADL, the protein stability index is 2.06. SFMPLCIKVTSATSVNLGILTADL: the protein stability index stood at 3.92. As for SFMPLVIKVTKATSVNLGILTADL, the protein stability index came to 2.9. SFMPLVIKVTQATSVNLGILTADL: the protein stability index came out at 2.23. To SFMPLVIKVTFATSVNLGILTADL belongs 4.62; to SFMPLVIKVTAATSVNLGILTADL, 4.19; to SFMPLVIKVTNATSVNLGILTADL, 4.93. SFMPLVIKVTCATSVNLGILTADL: the protein stability index amounted to 2.19.

As for SFMPLVIKVTTATSVNLGILTADL, the protein stability index was 2.03. SFMPLVIKVTLATSVNLGILTADL: the protein stability index was 1.96. To SFMPLVIKVTVATSVNLGILTADL belongs 2.64. With SFMPLVIKVTEATSVNLGILTADL, the protein stability index came out at 2.8. Take SFMPLVIKVTIATSVNLGILTADL: the protein stability index worked out at 4.08. On to SFMPLVIKVTMATSVNLGILTADL, for which the protein stability index is 3.94. To SFMPLVIKVTDATSVNLGILTADL belongs 2.91.
